In patent US20200223906A1 (Adimab, published 2020):
Residue numbers refer to the chain shown, from its start.

B1: ADI-18968 (antibody, V domains shown)
VH: EVQLVESGPGLVKPSQTLSLTCTVSDVLISSGDYYWSWIRQSPGKGLEWLGYIYYTGKTKYNPSLESRITMSVDTSKNQFSLRLSSVTAADTAVYFCTRDLGYSTSSPSFYYGMDVWGQGTTVTVSS
VL: EIVLTQSPATLSLSPGERATLSCRASQSVGTYLAWYQQKPGQAPRLLIYDASYRVTGIPARFSASGSATDFTLTISSLEPEDFAVYFCQQRTNWPITFGQGTRLEIK
notes: full-length IgG from yeast
B2: ADI-18876 (antibody, V domains shown)
VH: QVQLQESGPGLVKPSQTLSLTCTVSGPSISSGDYYWTWIRQPPGKGLEWIGYIYNSGSTDYNPSLKSRITMSLDRSKNQFSLNLSSVTAADTAVYFCARDVGTLVLPTVAYYYGMDVWGQGTTVTVSS
VL: EIVLTQSPGTLSLSPGERATLSCRASESISSSYLAWYQQKPGQAPRLLIYDASSRATGIPDRFSGSGSGTDFTLTISSLEPEDFAVYYCQQYGSSPLVTFGPGTKVDIK
notes: full-length IgG from yeast
B3: ADI-18922 (antibody, V domains shown)
VH: QVQLQESGPGRVKPSETLSLTCSVADGSISSGHYYWGWVRQPPGKGLEWIATIHDSGATYYNPSLQSRVTISVDTSKNQFSLKVNSVTAADTAVYYCASRRGSGWFFDSWGQGTLVTVSS
VL: DIVLTQSPATLSVSPGERVTLSCRASHSVNYNLAWYQQKPGQAPRLLIYGSSTRATGLPARFSGSGSGTEFTLTISSLQSEDFAIYYCQQYNNWPPGGTFGQGTKVEIK
notes: full-length IgG from yeast; also called Antibody Number 276; Ab # 276
B4: ADI-18946 (antibody, V domains shown)
VH: QVQLVQSGGGVVQPGRSLRLSCAASGFTFSDYAMHWVRQAPGKGLEWVAIISYDANNKYYADSVKGRFTISRDNSKNTVYLQMNSLRPEDTAVYYCAKEEWLVPAYWGQGILVTVSS
VL: QSVLTQPASVSGSPGQSITISCTGTSSDVGGYNYVSWYQQHPGKAPKLLIYEVSNRPSGVSNRFSGSKSGNTASLTISGLQPEDEADYYCSSYSTNSAPFGTGTKLTVL
notes: full-length IgG from yeast
B5: ADI-18947 (antibody, V domains shown)
VH: QVQLVQSGGGVVQSGRSLRLSCAASGFTFSDNGMHWVRQAPGKGLEWVAGIFHDGSNKQYAESVKGRFIISRDNSKNTLYLQMNSLRAEDTALYFCARAPYDIWSGYCLDYWGQGTLVTVSS
VL: DIRMTQSPATLSLSPGESATLSCRASQSVINNLAWYQQRPGQAPRLLIYGASTRATGIPARFSGSGSETEFTLTISSLQSEDFAVYHCQQYSIWPQTFGQGTKLEIK
notes: full-length IgG from yeast
B6: ADI-18896 (antibody, V domains shown)
VH: B5 VH with Q1E, V5L, Q6E, H53Y, E62D, I69T, N77S, L93V, F95Y
VL: B5 VL with R3Q, S7T, L13M, S18R, I30N
notes: full-length IgG from yeast
B7: ADI-18955 (antibody, V domains shown)
VH: B5 VH with Q1E, Q6E, T28I, H53Y, E62D, I69T, N84K, L93V, F95Y
VL: B5 VL with R3Q, M4V, L13M, S18R, I30N, L104V
notes: full-length IgG from yeast; also called Antibody Number 306; Ab # 306
B8: ADI-18899 (antibody, V domains shown)
VH: B5 VH with Q1E, Q6E, H53Y, E62D, I69T, N77S, L93V, F95Y
VL: B5 VL with M4L, L13M, S18R, I30N, L104V, E105D
notes: full-length IgG from yeast
B9: ADI-18948 (antibody, V domains shown)
VH: EVQLLESGGGVVQSGRSLRLSCVASGFTFSDSGMHWVRQAPGKGLEWVAGLFYDGSNKQYADSVKGRFTISRDNSKSTLYLQMNSLRAEDTAVYYCARAPYDIWSGYCLDYWGQGTLVTVSS
VL: B5 VL with D1E, R3V, M4L, S12Y, L13M, S18R, I30N
notes: full-length IgG from yeast; also called Antibody Number 300; Ab # 300
B10: ADI-19014 (antibody, V domains shown)
VH: EVQLVESGPRLVKPSQTLSLTCTVYGGSISGGQNYYSWVRQPPGKGLEWIGYIFSSGTTYYKPSLKSRISISFDTSKNQFSLNLASVTAADTAVYFCARSADIDIVWGSSLYMPLWGQGTLVTVSS
VL: EIVLTQSPGTLSLSPGQRATLSCRATHIVSNSYLAWYQQKPGQAPRLLIHGVSIRATGIPDRFSGSGSGTDFTLTISRLEPEDFAVYFCQQYGTSPWTFGQGTKLEIK
notes: full-length IgG; also called Antibody Number 362
B11: ADI-19012 (antibody, V domains shown)
VH: EVQLVESGPGLVKPSGTLSLTCAVSGDSIVGSDWWSWIRQPPGKGLEWIGDIYHGGTTSYNPSLKSRVTMSVDKSKNQFSLKLTSVTAADTAVYYCARLSGNCSGGSCYSPFDHWGQGTLVTVSS
VL: DIQMTQSPSSLSASVGDRVTITCRASQTINGYLNWYQQRPGKAPKLLISAASSLQSGVPSRFRGSGYGTDFTLTISSLQPEDFATYFCQQSYNTVYTFGQGTKVDIK
notes: full-length IgG; also called Antibody Number 360
B12: ADI-18981 (antibody, V domains shown)
VH: EVQLQESGSRLVKPSQTLSLTCSVSGGSLNAGGYLWSWIRQPPGKGLEWVGYIYPSGTTYYNPSLQSRISISQDRSRNQFSLSVASVTAADTAVYYCARCGNEYGEVHPFDIWGQGTTVTVSS
VL: EIVLTQSPGTLSLSPGERATLSCRGSPIVGNNYLAWYQQKPGQAPRLLIYAASIRATGIPDRFSGSGSGTDFTLTISRLEPEDFAVYYCQQYGSSPWTFGQGTKVDIK
notes: full-length IgG; also called Antibody Number 329
B13: ADI-19001 (antibody, V domains shown)
VH: EVQLVESGGGLVKPGRSLRLSCTASGFNFGDYAMSWFRQAPGKGLEWVGFIRSKTYRETREYAASVKGRFTMSRDDFNRIAYLQMNSLKTEDTAMYYCTRQDDFWSGHPYYFEYWGQGTLVTVSS
VL: QPVLTQPPSASGSPGQSVTISCTGTNSDVGSYNYVSWYQHHPGKAPKLIIYDVAKRPSGVPDRFSGSKSGNTASLTVSGLQAEDEADYYCSSYAGSNDLGVFGTGTKLTVL
notes: full-length IgG; also called Antibody Number 349
B14: ADI-19013 (antibody, V domains shown)
VH: QVQLVQSGAEVKKPGESLKISCKGSGYSFSSYWIGWVRQMPGKGLEWMGIIYPGDSDTRYSPSLQGQVTISGDKSISTAFLQWSSLKASDTAMYYCARPMTTQEGFDLWGQGTMVTVSS
VL: DIRLTQSPSSVSASVGDRVTITCRASQGISDWLAWYQQKPGKAPKLLIYAASSLQSGVPSRFSGSGSGTDFTLTISSLQPEDFATYYCQQTNSFLPLTFGGGTKVDIK
notes: full-length IgG; also called Antibody Number 361
B15: ADI-18980 (antibody, V domains shown)
VH: QVQLVQSGAEVKKPGESLKISCKGFGYSFNSYWIAWVRQMPGKGLECMGIIYPGDSDTRYSPSFQGQVTISVDKSITTAYLQWSSLKVSDTAMYYCAKSNVGNTGWNYWGQGTLVTVSS
VL: EIVLTQSPATLSLSPGERATLSCRASHSVATDLAWYQQKPGQAPRLLIYDASKRATDVPARFSGSGSGTDFTLTISSLEPEDVAVYYCQEVRNWPPCTFGQGTKVDIK
notes: full-length IgG; also called Antibody Number 328
B16: ADI-18989 (antibody, V domains shown)
VH: EVQLVESGGGLVQPGGSLRLSCAASGFSFNTYSMNWVRQAPGKGLEWLSFISSSSHTLYYADSVKGRFTVFRDNAKHSLFLQMNGLRDEDTAVYFCARSLGSGNYDNEDQTFYYYYGMDVWGQGTTVTVSS
VL: ETTLTQSPLSLPVTPGEPASISCRSSQSLLFHSNGHNYLDWYLQKPGQSPQLLIHLGSNRASGVPDRFSGSGSGTDFTLKISRVEPEDVGVYYCMQALQTPYTFGQGTKVEIK
notes: full-length IgG
B17: ADI-18984 (antibody, V domains shown)
VH: QVQLQESGPGLVKPSETLSLTCTVSGASVTTNTYYWTWIRQPPGKELEWIGYIHHTGNTHYNPSLESRLTMSLDTSRNQFSLNLRSATTADTAVYYCARGEHFAYWWGNWGQGALVTVSS
VL: DIRVTQSPSSVSASVGDRVTITCRASQGIARWLAWYQQKPGKAPKLLIYAASSLQGGVPSRFSGSGYGTDFTLTISSLQPEDFATYYCQQANSFPRTFGQGTKVEIK
notes: full-length IgG

biological target: RSV F protein of subtype A (strain A2) on recombinant mKate-RSV virus (Respiratory syncytial virus subtype A …, UniProt P03420 26-574); assay: cell-based or functional assay

Compared with B1, B2 is 25-fold lower in “Neut IC50 (µg/ml) subtype A” value: 0.909 µg/mL for the first, 0.037 µg/mL for the second.

Compared with B3, B4 is lower in “Neut IC50 (µg/ml) subtype A” value: greater than 10 µg/mL for the first, 0.093 µg/mL for the second.

B5 and B6 are within 1.5-fold of each other in “Neut IC50 (µg/ml) subtype A” value: 1.3 µg/mL for the first, 1.1 µg/mL for the second.

First: B7
Second: B8
The “Neut IC50 (µg/ml) subtype A” value of the first is 2.6-fold higher: 1.93 µg/mL for the first, 0.742 µg/mL for the second.

For B9, the “Neut IC50 (µg/ml) subtype A” value was 1.12 µg/mL.

biological target: RSV F protein of subtype A (strain A2) on recombinant mKate-RSV (respiratory syncytial virus subtype A …, UniProt P03420 26-574); assay: cell-based or functional assay

Going from B10 to B11, the “Neut IC50 subtype A” value rises from 1.75 mg/L to greater than 10 mg/L.

B12 and B13 cannot be ordered by “Neut IC50 subtype A” value: greater than 10 mg/L for the first, greater than 10 mg/L for the second.

First: B14
Second: B15
The “Neut IC50 subtype A” value of the first is 2.6-fold higher: 9.5 mg/L for the first, 3.6 mg/L for the second.

B16 and B17 cannot be ordered by “Neut IC50 subtype A” value: greater than 10 mg/L for the first, greater than 10 mg/L for the second.

biological target: RSV F protein of subtype B (18537) on recombinant mKate-RSV virus (Respiratory syncytial virus subtype B …, UniProt P13843 26-574); assay: cell-based or functional assay

In order of rising “Neut IC50 (µg/ml) subtype B” value:
1. B2  0.179 µg/mL
2. B4  0.227 µg/mL
3. B1  0.541 µg/mL
4. B8  2.7 µg/mL
5. B7  3.12 µg/mL
6. B5  3.6 µg/mL
7. B9  4.35 µg/mL
8. B6  4.72 µg/mL
9. B3  5.05 µg/mL

biological target: RSV F protein of subtype B (18537) on recombinant mKate-RSV (respiratory syncytial virus subtype B …, UniProt P13843 26-574); assay: cell-based or functional assay

B10 and B11 cannot be ordered by “Neut IC50 subtype B” value: greater than 10 mg/L for the first, greater than 10 mg/L for the second.

Going from B12 to B13, the “Neut IC50 subtype B” value falls from greater than 10 mg/L to 3.26 mg/L.

B14 and B15 cannot be ordered by “Neut IC50 subtype B” value: greater than 10 mg/L for the first, greater than 10 mg/L for the second.

B16 and B17 cannot be ordered by “Neut IC50 subtype B” value: greater than 10 mg/L for the first, greater than 10 mg/L for the second.

biological target: T1, RSV F subtype A, furin-cleaved ectodomain stabilized in the postfusion conformation (F ΔFP) (Respiratory syncytial virus subtype A, UniProt P03420 26-109; P03420 147-524); assay: BLI, IgG on AHQ sensor, 100 nM antigen
T1 construct: extracellular domain; Trimeric soluble antigen; also called Postfusion subtype A

In order of falling Kd:
1. B2  1.71 nM
2. B1  0.438 nM
3. B3  0.322 nM
4. B5  0.296 nM
5. B6  0.279 nM
6. B8  0.266 nM
7. B9  0.257 nM
8. B7  0.256 nM
9. B4  0.206 nM

biological target: T2, RSV F subtype A, furin-cleaved ectodomain stabilized in the prefusion conformation (DS-Cav1) (Respiratory syncytial virus subtype A, UniProt P03420 26-524); assay: BLI, IgG on AHQ sensor, 100 nM antigen
T2 construct: extracellular domain; Trimeric soluble antigen; also called Prefusion subtype A

In order of falling Kd:
1. B9  4.55 nM
2. B3  3.47 nM
3. B5  2.45 nM
4. B6  2.27 nM
5. B1  1.98 nM
6. B8  1.92 nM
7. B2  0.707 nM
8. B7  0.599 nM
9. B4  0.158 nM

biological target: T3, RSV F subtype B, furin-cleaved ectodomain stabilized in the prefusion conformation (DS-Cav1) (Respiratory syncytial virus subtype B); assay: BLI, IgG on AHQ sensor, 100 nM antigen
T3 construct: extracellular domain; Trimeric soluble antigen; also called Prefusion subtype B

In order of falling Kd:
1. B3  5.27 nM
2. B7  2.37 nM
3. B5  2.2 nM
4. B9  2.1 nM
5. B6  1.81 nM
6. B8  1.59 nM
7. B1  0.602 nM
8. B2  0.316 nM
9. B4  0.157 nM

biological target: T4, RSV F subtype B, furin-cleaved ectodomain stabilized in the postfusion conformation (F ΔFP) (Respiratory syncytial virus subtype B); assay: BLI, IgG on AHQ sensor, 100 nM antigen
T4 construct: extracellular domain; Trimeric soluble antigen; also called Postfusion subtype B

In order of falling Kd:
1. B1  0.305 nM
2. B3  0.287 nM
3. B5  0.282 nM
4. B6  0.27 nM
5. B8  0.251 nM
6. B7  0.25 nM
7. B9  0.247 nM
8. B2  0.179 nM
9. B4  0.166 nM

biological target: T5, RSV F ectodomain stabilized in the postfusion conformation (F ΔFP), subtype B (respiratory syncytial virus subtype B, UniProt P13843 26-109; P13843 147-524); assay: BLI (Octet), IgG on AHQ sensor, 100 nM antigen
T5 construct: extracellular domain; Trimer; also called Postfusion subtype B

In order of rising Kd:
1. B13  0.149 nM
2. B10  0.277 nM
3. B12  0.28 nM
4. B11  0.314 nM
5. B15  0.35 nM
6. B16  0.377 nM
7. B14  0.583 nM
8. B17  0.659 nM
